Columns and labels:
Abz-GGFLRKHGQ-EDDnp [1] = target: T1, Abz-GGFLRKHGQ-EDDnp (Rattus norvegicus, UniProt P35559); test: Activation by bradykinin, wild type rIDE and distal site mutants; assay type: biochemical; settings: 10 μM Abz-GGFLRKHGQ-EDDnp as substrate
T1 construct: begin at methionine 42, which is believed to be the in vivo start site, and extend through the native C-terminal residue leucine 1019; hexahistidine with linker holding a TEV protease site (N, cleaved yes); made in house; host or cells: SF9 insect cells (baculovirus, pFastBac HTb)
T1 sequence (P35559 42-1019): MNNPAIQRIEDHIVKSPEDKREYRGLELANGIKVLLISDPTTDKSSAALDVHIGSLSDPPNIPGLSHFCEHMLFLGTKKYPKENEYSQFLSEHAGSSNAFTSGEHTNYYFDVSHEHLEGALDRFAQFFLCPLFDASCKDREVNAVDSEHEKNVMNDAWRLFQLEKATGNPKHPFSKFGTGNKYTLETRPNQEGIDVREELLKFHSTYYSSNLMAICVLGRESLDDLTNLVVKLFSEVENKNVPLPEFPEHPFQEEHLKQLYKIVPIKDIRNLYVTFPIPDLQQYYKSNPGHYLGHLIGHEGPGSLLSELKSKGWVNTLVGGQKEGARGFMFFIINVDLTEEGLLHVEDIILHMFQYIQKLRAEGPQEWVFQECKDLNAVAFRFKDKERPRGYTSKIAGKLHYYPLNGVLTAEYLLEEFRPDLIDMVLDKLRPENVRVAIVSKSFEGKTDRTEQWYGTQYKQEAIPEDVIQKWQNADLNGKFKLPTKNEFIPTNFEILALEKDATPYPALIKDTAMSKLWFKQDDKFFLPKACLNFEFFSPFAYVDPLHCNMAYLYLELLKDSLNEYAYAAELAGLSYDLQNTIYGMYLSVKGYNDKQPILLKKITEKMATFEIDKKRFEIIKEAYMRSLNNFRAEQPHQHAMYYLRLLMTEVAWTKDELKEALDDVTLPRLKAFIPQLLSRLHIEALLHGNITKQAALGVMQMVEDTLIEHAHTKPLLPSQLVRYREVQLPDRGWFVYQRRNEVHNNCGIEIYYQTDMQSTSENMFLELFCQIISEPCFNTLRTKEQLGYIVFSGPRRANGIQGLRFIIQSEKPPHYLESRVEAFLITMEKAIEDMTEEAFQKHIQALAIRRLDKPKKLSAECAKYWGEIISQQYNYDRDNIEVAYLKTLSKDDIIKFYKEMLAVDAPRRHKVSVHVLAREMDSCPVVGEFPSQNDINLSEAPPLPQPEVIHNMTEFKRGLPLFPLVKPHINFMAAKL
Protocol: FIG. 17. Effects of distal site mutations. (A) Comparison of the kinetics of wild type IDE with the distal site mutants. Activity was measured with varying amounts of Abz-[…]-EDDnp (SEQ ID NO:3) substrate as indicated. Either hyperbolic (Michaelis-Menten equation) or sigmoidal curves (Hill equation) were fit to the data. (B) Effect of bradykinin on the activity of wild type IDE and the distal site mutants. (C) Activation of wild type IDE and distal site mutants by ATP. Relative activity is the fold activation above the level of the wild type enzyme alone.
The activity of IDE was measured by following the increase in fluorescence upon hydrolysis at the L-R bond of the fluorogenic peptide Abz-[…]-EDDnp (SEQ ID NO:3) on a SpectraMax Gemini XS fluorescence plate reader using an excitation wavelength of 318 nm and emission wavelength of 419 nm. Reactions were carried out in 200 μl volumes containing 50 mM Tris-HCl, pH 7.4, 1.92 μg of wild type rIDE, 4.6 μg of rIDE-V360S, 4.3 μg rIDE-I374S, or 1.63 μg of rIDE-Y609F. For measurements of activation by bradykinin, IDE activity was determined with 10 μM Abz-[…]-EDDnp (SEQ ID NO:3) as substrate in 50 mM Tris-HCl buffer, pH 7.4. The amount of protein was 0.5 μg for wild type rIDE and 5 μg for each of the IDE distal-site mutants. Data were analyzed using Softmax 4.0 (Molecular Devices) and kinetic parameters calculated with Prism (Graphpad Software). […]

Abz-GGFLRKHGQ-EDDnp [2] = test: Enzyme activity assay, kinetics of IDE and ATP binding site mutants with fluorogenic substrate; assay type: biochemical; settings: rat IDE, Abz-GGFLRKHGQ-EDDnp as substrate
Protocol: Reactions were conducted in 50 mM Tris-HCl, pH 7.4.
IDE activity was determined by measuring the increase in fluorescence that occurs when the enzyme cleaves the internally quenched fluorogenic substrate Abz-[…]-EDDnp (SEQ ID NO:3) at the R—K bond (Song et al., Journal of Biologial Chemistry 276, 1152-1155 (2001)). The reaction was followed on a SpectraMax Gemini XS fluorescence plate reader using an excitation and emission wavelengths of 318 nm and 419 nm, respectively. Initial velocities were determined using SoftMax Pro 4.0 and kinetic constants calculated using GraphPad Prism 4.0. ATPase activity was measured by following Pi release with acid-molybdate as described by Harder et al. (Harder et al., Biochemical Journal 298 (Pt 2), 395-401 (1994)).

B1: IDE: Native rat insulin degrading enzyme (SEQ ID NO:1), expressed as hexahistidine fusion protein in Sf9 insect cells (protein, listed as Rattus norvegicus)
chain: MRNGLVWLLHPALPSTLHSILGARPPPVKRLCGFPKQIYSTMNNPAIQRIEDHIVKSPEDKREYRGLELANGIKVLLISDPTTDKSSAALDVHIGSLSDPPNIPGLSHFCEHMLFLGTKKYPKENEYSQFLSEHAGSSNAFTSGEHTNYYFDVSHEHLEGALDRFAQFFLCPLFDASCKDREVNAVDSEHEKNVMNDAWRLFQLEKATGNPKHPFSKFGTGNKYTLETRPNQEGIDVREELLKFHSTYYSSNLMAICVLGRESLDDLTNLVVKLFSEVENKNVPLPEFPEHPFQEEHLKQLYKIVPIKDIRNLYVTFPIPDLQQYYKSNPGHYLGHLIGHEGPGSLLSELKSKGWVNTLVGGQKEGARGFMFFIINVDLTEEGLLHVEDIILHMFQYIQKLRAEGPQEWVFQECKDLNAVAFRFKDKERPRGYTSKIAGKLHYYPLNGVLTAEYLLEEFRPDLIDMVLDKLRPENVRVAIVSKSFEGKTDRTEQWYGTQYKQEAIPEDVIQKWQNADLNGKFKLPTKNEFIPTNFEILALEKDATPYPALIKDTAMSKLWFKQDDKFFLPKACLNFEFFSPFAYVDPLHCNMAYLYLELLKDSLNEYAYAAELAGLSYDLQNTIYGMYLSVKGYNDKQPILLKKITEKMATFEIDKKRFEIIKEAYMRSLNNFRAEQPHQHAMYYLRLLMTEVAWTKDELKEALDDVTLPRLKAFIPQLLSRLHIEALLHGNITKQAALGVMQMVEDTLIEHAHTKPLLPSQLVRYREVQLPDRGWFVYQRRNEVHNNCGIEIYYQTDMQSTSENMFLELFCQIISEPCFNTLRTKEQLGYIVFSGPRRANGIQGLRFIIQSEKPPHYLESRVEAFLITMEKAIEDMTEEAFQKHIQALAIRRLDKPKKLSAECAKYWGEIISQQYNYDRDNIEVAYLKTLSKDDIIKFYKEMLAVDAPRRHKVSVHVLAREMDSCPVVGEFPSQNDINLSEAPPLPQPEVIHNMTEFKRGLPLFPLVKPHINFMAAKL
modifications: hexahistidine tag; wild-type Insulin Degrading Enzyme (IDE) from rat
Which “Heterotropic activation with bradykinin” value (Abz-GGFLRKHGQ-EDDnp [1]) does the source give for B1 here?
The value was “approximately 4 fold”.

What about the “Hill coefficient” value (Abz-GGFLRKHGQ-EDDnp [2]) of the same molecule?
Its value is 2.1 ± 0.3.

And the Km (Abz-GGFLRKHGQ-EDDnp [2])?
The Km was 9.6 ± 0.7 mM.

And the kcat (Abz-GGFLRKHGQ-EDDnp [2])?
Its kcat is 5.2 ± 0.2 min⁻¹.

What about the Vmax (Abz-GGFLRKHGQ-EDDnp [2]; 50 mM Tris-HCl, pH 7.4) of the same molecule?
The Vmax was 47.2 ± 1.7 nmol/min/mg.
